The subject of data set [1] is N[C@H](CCC[C@H](N)C(=O)O)C(=O)O. The data set is described as follows: purified protein. The following applies: 100 mM TEA-HCl pH 7.8, PLP, 10 mM MgCl2, 30 C, DAP 0-10 mM.
For the next data set, the system named is NC(CCCCC(=O)O)C(=O)O. The data set is described as follows: purified protein. Particulars: similar conditions to wild-type assay; 2-APA 0-10 mM; racemic substrate.

The term kcat denotes the maximal rate divided by the concentration of active sites.

Regarding “TmDAPDC (diaminopimelate decarboxylase from T. maritima) (Thermotoga maritima MSB8)”, in data set [1], the Km is on record as 0.27 (0.06) mM and the kcat amounted to 0.075 s⁻¹.

For the substance “TmDAPDC (diaminopimelate decarboxylase from T. maritima) (Thermotoga maritima MSB8; E315T)”, in the data set with NC(CCCCC(=O)O)C(=O)O, the Km is on record as 0.32 (0.03) mM and the kcat stood at 0.2 s⁻¹.

The record behind these values is publication PMC8277567, “Thermostable D-amino acid decarboxylases derived from Thermotoga maritima diaminopimelate decarboxylase” (Protein Engineering, Design and Selection, 2021).
